The source of these data is US20250049930A1 (CEDARS SINAI MEDICAL CENTER, published 2025).

The term Kd denotes the free concentration of one partner at which half of the binding sites on the other are occupied at equilibrium, for simple one-to-one binding.

The target of experiment [1] is T1, cereblon (E3 ubiquitin ligase).
T1 chain: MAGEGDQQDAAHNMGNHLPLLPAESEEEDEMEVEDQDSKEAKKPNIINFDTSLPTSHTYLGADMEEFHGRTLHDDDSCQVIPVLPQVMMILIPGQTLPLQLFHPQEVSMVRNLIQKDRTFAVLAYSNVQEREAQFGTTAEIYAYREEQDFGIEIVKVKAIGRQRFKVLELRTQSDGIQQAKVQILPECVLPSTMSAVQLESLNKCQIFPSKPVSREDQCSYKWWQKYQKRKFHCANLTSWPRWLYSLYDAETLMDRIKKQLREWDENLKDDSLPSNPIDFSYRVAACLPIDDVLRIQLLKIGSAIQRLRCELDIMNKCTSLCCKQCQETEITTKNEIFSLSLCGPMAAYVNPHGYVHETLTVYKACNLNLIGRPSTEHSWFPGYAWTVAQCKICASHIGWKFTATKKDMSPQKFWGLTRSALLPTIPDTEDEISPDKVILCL
Put plainly: SPR imaging (PlexArray HT), cereblon printed on chip; ternary complex of cereblon, FoxP3 and P-FoxP3 (recombinant FoxP3 present).

The target is the same in experiment [2]. The experiment in a line: SPR imaging (PlexArray HT), cereblon printed on chip; binary complex of cereblon and PF.

Primed or numbered codes have the meaning given here. PEG4′ = polyethylene glycol linker with 4 oxyethylene units

B1: Proteolysis-targeting chimera (PROTAC) targeting FoxP3 (Pomalidomide-PEG4-RDFQSFRKMWPFFAM) (peptide)
peptide: {pomalidomide-PEG4′}-RDFQSFRKMWPFFAM-OH
notes: Conjugate of the P60 peptide with the small molecule pomalidomide; also called P-FoxP3; PROTAC for FoxP3
Take B1: the results for the Kd in experiment [1] and in experiment [2] were 434 nM and 987 nM, respectively.
